The values below come from PMC9132996.

The subject of this data set is PutA (proline utilization A) (Ralstonia solanacearum GMI1000). Description: MST. As to conditions: room temperature 30 min, buffer not stated.

The substance epsA promoter 336 bp yielded a dissociation constant (Kd) of 10.7 nM.

For phcB promoter 327 bp, the Kd worked out at 13 nM.

solI promoter 324 bp: the Kd came out at 12.7 nM.

trpEG promoter 291 bp registered a dissociation constant Kd of 17.1 nM.
